For this assay, the target named is His6-RumM (ruminococcin-A lanthionine synthetase RumM) (Ruminococcus gnavus E1) (UniProt P83674).

“His6-GFP-TEV-preRumA* (GFP fusion of the precursor peptide preRumA with Gly-1 replaced by Arg), co-expressed with RumM (from UniProt P83674 24-47)” returned a fraction of His6-GFP-TEV-preRumA* complexed with His6-RumM that TEV protease digested (the free construct was completely digested), SDS-PAGE of 50%.

These data come from article PMC6071512.
